Experimental data from the supplement of paper PMC10724198.
± gives the standard deviation of the averaged measurements.

What follows are sequences tested on Saccharomyces cerevisiae (assay: protein stability index of tFT-peptide fusion (C-terminal peptide) (PSI (0-1 scale)); higher = more stable (slower turnover)). Conditions: genetic background: wild type; temperature: 30 C.
Experimental: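 Multiplexed protein stability (MPS) profiling in S. cerevisiae. Random 12-aa peptides (tFT-X12 library) are fused to the C-terminus of a sfGFP-mCherry tandem fluorescent timer, after mCherry and a GGGS linker. Cells are FACS-sorted into 8 mCherry/sfGFP bins and deep-sequenced. The protein stability index (PSI) is the read-weighted bin average, scaled from 0 (unstable) to 1 (stable). Only peptides with >10 reads are reported; cells were grown at 30 °C in SC-His with glucose.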
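Also: PSI is a weighted mean of sequencing reads over stability bins, variants kept only with over 10 reads, mCherry proximal and sfGFP distal, peptide attached via GGGS linker.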

| Sequence | protein stability index |
| --- | --- |
| ENNKRRTKRHKE | 0.62791 ± 0.00025 |
| PPFASPSPLPPP | 0.7006 ± 0.0069 |
| GCFFQPRWSLLS | 0.599 ± 0.0088 |
| RHGFTNINGIKH | 0.714 ± 0.012 |
| TNSGLGTGRRSA | 0.768 ± 0.02 |
| FPFCAFPPSPTC | 0.75 ± 0.038 |
| CSSRDGLLWRFR | 0.731 ± 0.088 |
| PLLTPLCSVSHS | 0.689 ± 0.0072 |
| SNTKLIGLIVIG | 0.539 ± 0.043 |
| KYEKILLTVAPE | 0.672 ± 0.019 |
| SALSLDNLIHSY | 0.676 ± 0.071 |
| PPTNTPTPPSYV | 0.691 ± 0.025 |
| SFLFDSPYFVAI | 0.699 ± 0.018 |
| GCSQGGRRSGNE | 0.644 ± 0.029 |
| PPRSPPPLSPTP | 0.583 ± 0.038 |
| RYWCATHIGACL | 0.788 ± 0.093 |
| KTRHRQKDVTTH | 0.713 ± 0.055 |
| PLCPPYPPGRVP | 0.6841 ± 0.0021 |
| SCSFPPSPFLCG | 0.677 ± 0.03 |
| GCLDGLGLPCLS | 0.681 ± 0.079 |
| KDGSKMQCNIKK | 0.6763 ± 0.0014 |
| LSKSPRPARCSA | 0.6091 ± 0.0024 |
| FRLDRYLGGKIG | 0.641 ± 0.063 |
| APTPPPPPPPLP | 0.752 ± 0.011 |
| GVVIGWAGYKGT | 0.671 ± 0.043 |

| Sequence | protein stability index |
| --- | --- |
| TLVNPFYRRFNL | 0.739 ± 0.03 |
| PAPPPRDLPTPP | 0.664 ± 0.007 |
| GAQSRQMRSLAQ | 0.65 ± 0.11 |
| NWIIARFVPIGL | 0.685 ± 0.041 |
| QKLKPRKESSKN | 0.698 ± 0.058 |
| RACWGKSTGGEW | 0.723 ± 0.0083 |
| KKTTKKKRKKNK | 0.657 ± 0.018 |
| PVGGAGCVRGGV | 0.749 ± 0.19 |
| APPARSSPPPRP | 0.686 ± 0.039 |
| PLPPRPPSPPPR | 0.699 ± 0.037 |
| RNKKKAKKEENR | 0.664 ± 0.048 |
| CVVYLDVRLPVT | 0.58 ± 0.023 |
| GGGLWLYKKLVF | 0.682 ± 0.13 |
| GPTPHPVPTTCS | 0.69 ± 0.016 |
| LTTRTQTDDRKR | 0.682 ± 0.0077 |
| VLCRPLLPTSRL | 0.772 ± 0.02 |
| SVDMYTNNYKIH | 0.549 ± 0.038 |
| GDGSNVSLFILF | 0.784 ± 0.13 |
| PLVSGMLTSHLA | 0.6613 ± 0.0014 |
| WLGSRGNGGWAE | 0.696 ± 0.024 |
| TKKIKTDTEENN | 0.701 ± 0.043 |
| GSGWRLLLGLVR | 0.5731 ± 0.0022 |
| LSSWPFLPLVRI | 0.593 ± 0.02 |
| GWGIFRISSFGT | 0.713 ± 0.018 |
| ATPGALVSHPTL | 0.729 ± 0.049 |

| Sequence | protein stability index |
| --- | --- |
| FYYAERGSVERQ | 0.641 ± 0.0095 |
| AGLGLGRVNVMP | 0.743 ± 0.03 |
| AIYDSFRISYRT | 0.675 ± 0.028 |
| FPPPPPPPPPSP | 0.723 ± 0.028 |
| AGVGGCVGLGCR | 0.653 ± 0.042 |
| KKNKKQDDKKRQ | 0.645 ± 0.039 |
| VVLFPILKLLSN | 0.53 ± 0.015 |
| SPVPRIRPPPLL | 0.699 ± 0.053 |
| GGQGKWPGTPLL | 0.738 ± 0.022 |
| TTPYVRTSPRKP | 0.654 ± 0.0091 |
| PSYPTAPHHSAA | 0.704 ± 0.043 |
| LARLTRHSKLGL | 0.712 ± 0.066 |
| KEKKGNKTKKQN | 0.657 ± 0.017 |
| VELALPRGSTVV | 0.6596 ± 0.005 |
| EKTTDIKENERR | 0.692 ± 0.029 |
| DIIRKKNKQGRI | 0.702 ± 0.035 |
| DKKNIRIYNKTL | 0.669 ± 0.042 |
| EYRVRHSVDARS | 0.6241 ± 0.0019 |
| LEKYIKNYINKR | 0.615 ± 0.016 |
| SNNWLEKTGAMT | 0.659 ± 0.03 |
| GRDTVARSEGDR | 0.712 ± 0.037 |
| GTTHRSKRLRRK | 0.768 ± 0.035 |
| KVHQHPFLHALS | 0.695 ± 0.012 |
| TVLHLCMMTFLI | 0.576 ± 0.0084 |
| LAPNPGVLFCGI | 0.656 ± 0.044 |

| Sequence | protein stability index |
| --- | --- |
| SAPPLFPCPSPA | 0.68 ± 0.03 |
| VFGLVGWCAGDC | 0.715 ± 0.094 |
| SLGLSRSRLPKN | 0.682 ± 0.043 |
| DAYLGKRESRLW | 0.615 ± 0.07 |
| TRSTKIVVEGSG | 0.736 ± 0.085 |
| GVGFGWGGVWME | 0.691 ± 0.0073 |
| HLPPPPRITVVP | 0.716 ± 0.073 |
| SPPRLPTPPPLR | 0.705 ± 0.022 |
| TPPALPPPSPPA | 0.68516 ± 0.00038 |
| VRTSWRHESIKK | 0.618 ± 0.019 |
| GHKIIPPSTRFR | 0.626 ± 0.063 |
| KWGVWLWVGGGG | 0.763 ± 0.056 |
| PSPPPRPPLSPP | 0.715 ± 0.052 |
| ASRRASLSLRGP | 0.73 ± 0.022 |
| APRTPATRPNHP | 0.723 ± 0.045 |
| KKKKNKNEKPKK | 0.746 ± 0.074 |
| GLERAVGWAVCG | 0.622 ± 0.015 |
| EAWRQGRAGRGP | 0.6148 ± 0.0034 |
| PPEPPLSSLRRP | 0.674 ± 0.073 |
| YGRRPGSRGDEH | 0.699 ± 0.025 |
| VTWNTLENMNLV | 0.673 ± 0.032 |
| PLDTPYMAYNSD | 0.71 ± 0.033 |
| PTLAFIPIPTLF | 0.6051 ± 0.004 |
| SIKKQLQKKKQK | 0.743 ± 0.1 |
| VSQKQALVCPRI | 0.705 ± 0.085 |

| Sequence | protein stability index |
| --- | --- |
| SISSFLSLLFFR | 0.639 ± 0.062 |
| GYSSPPLITIPH | 0.659 ± 0.023 |
| FLCLLPLRLFGI | 0.603 ± 0.021 |
| FCLLPPFPFFRS | 0.661 ± 0.022 |
| RENGKIIKKRKK | 0.694 ± 0.026 |
| ANAPQAEHASVL | 0.699 ± 0.021 |
| GVRERSCIKKAR | 0.604 ± 0.058 |
| LRHLPHPTCSLL | 0.7 ± 0.06 |
| VGGKSVVRAESS | 0.645 ± 0.013 |
| PDFPPSRTPPEF | 0.624 ± 0.022 |
| SVWSSIMSVSFL | 0.6179 ± 0.00082 |
| WREAVMKRQGGG | 0.677 ± 0.014 |
| QPRAKNFRNPCP | 0.661 ± 0.1 |
| PSPPPPAPPPPP | 0.666 ± 0.013 |
| APRPSLTPLSTP | 0.653 ± 0.09 |
| RYRDSKPDIVDC | 0.723 ± 0.038 |
| PPPLPLSLCEPL | 0.7 ± 0.019 |
| QESRRTTVEKQA | 0.638 ± 0.011 |
| FSVWCDLFGFFC | 0.674 ± 0.075 |
| NKISRDAVWNCR | 0.657 ± 0.053 |
| GTKEYKKNRKII | 0.653 ± 0.03 |
| VRITRPFKAPTP | 0.711 ± 0.0056 |
| CSLVIRRRREVG | 0.659 ± 0.044 |
| TWARRAHALRCR | 0.493 ± 0.015 |
| EKMDIEKKVEGS | 0.812 ± 0.12 |

| Sequence | protein stability index |
| --- | --- |
| NRHGRALPSLEA | 0.644 ± 0.014 |
| LTPSLPLPPSET | 0.654 ± 0.047 |
| RGGGGGVECRVG | 0.655 ± 0.075 |
| LVLTPPLLSLYP | 0.683 ± 0.0083 |
| RQKTKRKDQKIK | 0.709 ± 0.023 |
| GAGAHCVSWLSN | 0.695 ± 0.0076 |
| PLPSAPVPPSAS | 0.71002 ± 0.0003 |
| RKCPRVCVFQSS | 0.557 ± 0.017 |
| PLLGLFTRYFDT | 0.7 ± 0.088 |
| IDGGSAWSAVSL | 0.687 ± 0.018 |
| PPSFCFFLLPFL | 0.6558 ± 0.0054 |
| GRYDARNYIRGK | 0.745 ± 0.14 |
| FRKALRIQSVGS | 0.6926 ± 0.0019 |
| EWPTESSLSSET | 0.689 ± 0.081 |
| HQSSHTRMARSL | 0.723 ± 0.013 |
| VVILGSMHLCSV | 0.561 ± 0.016 |
| FGYEPVSLRAEF | 0.675 ± 0.029 |
| QVVAAGRPWGVF | 0.677 ± 0.011 |
| GFCTVVGGVVIG | 0.7202 ± 0.0016 |
| WDFLLQGISSPR | 0.767 ± 0.12 |
| PLTPCPSATPAY | 0.648 ± 0.021 |
